Measured values: patent US7494767

Key:
[1] = molecular target: GAL4 activation domain-Tsg101 fusion protein (wild-type human Tsg101) (yeast; human) (UniProt Q99816); experiment: yeast 2-hybrid, β-galactosidase; p1-p6 variant with Tsg101
[2] = molecular target: GAL4 DNA-binding domain-p1-p6 fusion protein (yeast; human immunodeficiency virus type 1 (HIV-1)) (UniProt P04386); experiment: yeast 2-hybrid, β-galactosidase; Tsg101 variant with p1-p6

Chain of GAL4 activation domain-Tsg101 fusion protein (wild-type human Tsg101) (yeast; human) (Q99816 whole entry, the tested form may be a part): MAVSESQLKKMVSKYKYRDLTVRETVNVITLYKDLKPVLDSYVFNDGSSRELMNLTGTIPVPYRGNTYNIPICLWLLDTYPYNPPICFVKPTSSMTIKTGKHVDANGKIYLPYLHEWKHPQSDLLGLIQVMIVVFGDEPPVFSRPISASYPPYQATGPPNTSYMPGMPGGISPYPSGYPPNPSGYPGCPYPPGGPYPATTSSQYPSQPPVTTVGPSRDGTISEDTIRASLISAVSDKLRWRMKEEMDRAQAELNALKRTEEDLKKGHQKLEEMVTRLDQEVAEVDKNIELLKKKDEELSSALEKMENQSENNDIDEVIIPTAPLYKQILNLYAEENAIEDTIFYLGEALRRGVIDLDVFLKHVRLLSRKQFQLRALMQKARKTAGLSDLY

For “GAL4 DNA-binding domain-p1-p6 with the (LXX)4 repeat motif deleted (from UniProt P04386 1-147; P03347 435-512)”, the β-galactosidase activity, % of the wild-type level (% of wild-type) [1] was 55.

For “GAL4 DNA-binding domain-p1-p6 with the first PTAPP motif deleted (from UniProt P04386 1-147; P03347 435-512)”, the β-galactosidase activity, % of wild-type protein binding (% of wild-type) [1] was 50.

For “GAL4 DNA-binding domain-p1-p6 with the first PTAPP motif deleted and Ala for Pro7 in the second motif (from UniProt P04386 1-147; P03347 435-512)”, the β-galactosidase activity, % of wild-type (% of wild-type) [1] was 25.

With “GAL4 DNA-binding domain-p1-p6 with the second PTAPP motif deleted (from UniProt P04386 1-147; P03347 435-512)” the β-galactosidase activity, % of wild-type protein binding (% of wild-type) [1] was 25.

“GAL4 activation domain-Tsg101 Y110W (from UniProt Q99816 1-390)” showed a p6 interaction, % of wild-type (% of wild-type) [2] of 31.

With “GAL4 activation domain-Tsg101 Y113V (from UniProt Q99816 1-390)” the binding, % of wild-type (% of wild-type) [2] was 33.

“GAL4 activation domain-Tsg101 with Ala for Thr-Tyr-Asn (67-69) (from UniProt Q99816 1-390)” gave a binding, % of the wild-type level (% of wild-type) [2] of 5.
